In this experiment the target is T1, measles virus nucleocapsid (N) protein, Edmonston wild-type (measles virus (Edmonston wild-type), UniProt P04851 1-525).
T1 sequence (looked up): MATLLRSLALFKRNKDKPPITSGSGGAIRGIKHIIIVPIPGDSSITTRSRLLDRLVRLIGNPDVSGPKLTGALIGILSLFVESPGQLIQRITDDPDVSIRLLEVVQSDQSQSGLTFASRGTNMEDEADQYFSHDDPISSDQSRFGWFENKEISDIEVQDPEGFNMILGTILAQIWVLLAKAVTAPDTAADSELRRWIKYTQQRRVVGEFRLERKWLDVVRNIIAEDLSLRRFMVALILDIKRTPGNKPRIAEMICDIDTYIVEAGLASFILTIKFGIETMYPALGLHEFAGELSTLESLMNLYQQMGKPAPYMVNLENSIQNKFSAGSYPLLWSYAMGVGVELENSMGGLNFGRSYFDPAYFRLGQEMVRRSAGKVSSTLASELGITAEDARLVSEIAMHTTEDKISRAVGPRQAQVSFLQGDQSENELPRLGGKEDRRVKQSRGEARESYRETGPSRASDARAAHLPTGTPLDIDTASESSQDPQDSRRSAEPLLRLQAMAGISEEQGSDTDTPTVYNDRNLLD
The experiment is described as follows: separate experiment, method not described, data not shown.

B1: measles virus V protein mutant haV-11 (deletion of amino acids 1-20 and 208-230) (other)
chain: MAYPYDVPDYAAEPIGSLAIEEAMAAWSEISDNPGQERATCREEKAGSSGLSKPCLSAIGSTEGGAPRIRGQGPGESDDDAETLGIPPRNLQASSTGLQCYYVYDHSGEAVKGIQDADSIMVQSGLDGDSTLSGGDNESENSDVDIGEPDTEGYAITDRGSAPISMGFRASDVETAEGGEIHELLRLQSRGNNFPKLEGHRREISLIWNGDRVFIDRWCNPMCSKVTLGTIRARCTCGECPRVCEQCRTDTGVDTRIWYHNLPEIPE
notes: Made in the pMV-haV-wt backbone by deletion mutagenesis
As to B1, the binding result is listed as “no binding”.

B2: measles virus V protein mutant haV-9 (deletion of amino acids 1-20) (other)
chain: MAYPYDVPDYAAEPIGSLAIEEAMAAWSEISDNPGQERATCREEKAGSSGLSKPCLSAIGSTEGGAPRIRGQGPGESDDDAETLGIPPRNLQASSTGLQCYYVYDHSGEAVKGIQDADSIMVQSGLDGDSTLSGGDNESENSDVDIGEPDTEGYAITDRGSAPISMGFRASDVETAEGGEIHELLRLQSRGNNFPKLEKTLNVPPPPDPGRASTSETPIKKGHRREISLIWNGDRVFIDRWCNPMCSKVTLGTIRARCTCGECPRVCEQCRTDTGVDTRIWYHNLPEIPE
notes: as for B1
As to B2, the binding result is recorded as “no binding”.

Source of the values: patent publication US20030206925A1 (Pfizer, published 2003).
